System: O=[N+]([O-])c1ccc(O[C@H]2O[C@H](CO)[C@H](O)[C@H](O)[C@H]2O)cc1
Experiment: cells, lysate or membranes
Settings: Tris-HCl pH 8, 25 °C, unpurified cell-free expression reaction, final substrate 0.5-50 mM

## GH27_OsAPSE (GH27 domain of OsAPSE) (Oryza sativa Japonica Group)
  Km: 670 µM
